Experimental data as given in US8580269B2, “Survivin peptides for autoimmune therapies” (Health Research, Inc., priority 2007, dated 2013).

How the values were obtained:
GL261 cells = assay: intracranial survival study in GL261 murine glioma model; type: in vivo, C57BL/6 mice; settings: peptide loaded DC vaccine, GL261-C57BL/6 glioma model, FIG. 6
Protocol: FIG. 6 provides a graphical representation of data obtained from intracranial survival studies in a GL261 murine model utilizing altered peptides based on survivin amino acids 53-67. The peptides were administered using peptide loaded dendritic cell (DC) vaccines or as Keyhole Limpet Hemocyanin (KLH) conjugates. To obtain the data presented in FIG. 6, mice were intracranially implanted with 1×10^5 GL261 cells and were treated with survivin peptide DC vaccines. C57BL/6 mice were immunized with SVN57-64 based altered peptides, or OVA258-265 peptide loaded DC2.4 cells as well as a direct subcutaneous injection of 100 ug SVN 53-67/M57-KLH peptide in Incomplete Freund's Adjuvant (IFA) plus 100 ug GM-CSF. Vaccinations began 4 days after tumor cell implantation and were repeated (boosted) every 7 days to simulate a therapeutic setting. Survival was plotted according to Kaplan-Meier methods. Long-term survivors were confirmed tumor-free by high field strength MRI.

HLA-A*0201 [1] = biological target: T1, HLA-A*0201 (Homo sapiens, UniProt P04439, D140Y/D185E/D98H/E176V/E277Q/G131W/G231S/I119V/I121R/I166T/I218V/L300P/L318F/N151K/N90K/P208A/P217A/Q86G/Q94H/R138H/R169H/T345S); assay: MHC class I peptide competitive displacement assay; settings: displacement of labeled HPV18-27, FIG. 4A-B
Excerpt: (§1) FIGS. 4A, 4B and 4C provide a graphical representations of data from an analysis of HLA-A*0201 binding properties of survivin peptides. To obtain the data summarized in FIGS. 4A and 4B, survivin peptide epitopes were used in MHC class I peptide competitive displacement assays. IC50 represents the 50% inhibition concentration of survivin peptide required to displace a fluorescently labeled-known human MHC Class I ligand (HPV18-27). Positive control peptides (Flu & gp100) represent known immunogenic MHC class I ligands. Data represent mean fluorescence±S.E.M. of triplicate samples. FIG. 4C provides a graphical representation of data for specific HLA-A*0201 pentamer binding of wild type and altered survivin peptide epitopes.
(§2) As such, both peptides will bind H-2 Kb (the murine MHC class I counterpart) to a similar extent in mice. […] However, it is in administration to humans that the peptides of the invention are expected to display their enhanced potential, since the alteration of 57C to M alters the wild type peptide so that it contains a sequence that facilitates improved interaction with human MHC I. This is supported by the disparate MHC class I binding characteristics of the wild type and M57 peptides (FIG. 4A-C). As determined by competitive peptide binding assays, SVN53-67/M57 binds HLA-A*0201 approximately 12 fold stronger than the wild type SVN53-67 (FIG. 4A-B). […]

HLA-A*0201 [2] = biological target: T1, HLA-A*0201; assay: survivin/MHC Class I-specific pentamer binding
Excerpt: as §1, §2

H2-K^b = biological target: T2, H2-K^b (Mus musculus, UniProt P01901); assay: MHC class I peptide binding assay, upregulation of H2-K^b on RMA-S cells; type: cell-based, murine; settings: 100 μM peptide at 37° C., FIG. 3
T2 construct: Upregulation of H2-K^b molecules on the surface of murine RMA-S cells; endogenous in cells; host or cells: murine RMA-S cells
T2 sequence (P01901 22-369): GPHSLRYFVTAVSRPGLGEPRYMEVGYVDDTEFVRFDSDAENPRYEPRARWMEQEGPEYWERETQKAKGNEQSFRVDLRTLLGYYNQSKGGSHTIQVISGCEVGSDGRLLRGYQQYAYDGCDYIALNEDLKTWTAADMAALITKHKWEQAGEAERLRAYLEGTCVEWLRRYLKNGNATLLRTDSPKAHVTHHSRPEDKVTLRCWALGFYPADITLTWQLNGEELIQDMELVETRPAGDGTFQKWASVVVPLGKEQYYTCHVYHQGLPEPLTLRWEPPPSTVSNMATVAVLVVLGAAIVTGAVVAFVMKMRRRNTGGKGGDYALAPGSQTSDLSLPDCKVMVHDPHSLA
T2 sequence (P01887 21-119 partner): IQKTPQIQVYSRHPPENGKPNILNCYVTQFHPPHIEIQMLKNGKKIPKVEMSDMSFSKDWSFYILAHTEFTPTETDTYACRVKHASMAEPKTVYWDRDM
Protocol: To obtain the data presented in FIG. 3, survivin peptide epitopes were used in conventional MHC class I peptide binding assays. Mean fluorescence in FIG. 3 represents binding of SVN peptides to H2-K^b. Upregulation of H2-K^b molecules on the surface of murine RMA-S cells which are deficient in the expression of surface MHC class I molecules was used to determine actual survivin peptide binding in vitro. Data presented in FIG. 3 represent the binding of 100 μM peptide at 37° C.

Question: With “M F F C F K E L (MFFCFKEL; SVN-57-64/M57 mutant peptide)” as the substance, how does the “survival compared to wild type peptide” value (GL261 cells) read?
Answer: enhances survival over the wild type peptide

Question: Which results are given for “DLAQMFFCFKELEGW (SVN53-67/M57 with C to M change)”?
Answer: HLA-A*0201 binding relative to wild type SVN53-67 (HLA-A*0201 [1]): approximately 12 fold; increase of MHC I binding relative to the wild type sequence (HLA-A*0201 [2]; in situ binding assays for HLA-A*0201, FIG. 2 and FIG. 4C): approximately 73 fold

Question: T L G E F L K L [SVN-97] was tested. Which “binding of SVN peptides to H2-K^b (mean fluorescence)” value (H2-K^b) did it give?
Answer: less than SVN 57-64 wt, and considerably less than SVN 57-64/M57

Question: Which “HLA-A*0201 binding relative to wild type SVN56-64” value (HLA-A*0201 [2]; pentamer, FIG. 4C) does the source give for “SVN56-64/M57: core peptide, survivin 56-64 with the C>M alteration at position 57 (QMFFCFKEL)” here?
Answer: approximately 73 fold
